Target: his tagged cMET (UniProt P08581)
Assay: BLI (Fortebio Octet), antibody loaded on Protein A tips, his tagged cMET in solution, 1:1 fit

Onartuzumab (antibody)
Kd: 1.2 nM
